# Test results published in article PMC7755903 (Nature Communications, 2020).
# Positions count from the first letter of the chain named. Names and notes keep the numbering of the source. Values joined by “and” are separate entries in the source; they are usually repeats but may differ in a detail not shown here. Equal values may be shown once.
# B1: wild-type (WT) tetrameric human βI-tryptase (enzyme)
# chain: not shown
# notes: mature human βI-tryptase, Ile31-Pro275 of Uniprot Q15661 (Ile16-Pro246 in chymotrypsinogen numbering); N-terminus IVGG after enterokinase cleavage; Homotetramer; residues in the results are in chymotrypsinogen numbering; also called βI-tryptase tetramer; tetrameric β-tryptase; source: Trichoplusia ni cells (baculovirus), secreted, purified (Ni-NTA, S200 SEC); zymogen cleaved with enterokinase in …
# B2: E104.v2 IgG1 hinge variant G1-TH (antibody, V domains shown)
# VH: EVQLVESGPGLVKPSETLSLTCTVSRFSLIGYAITWIRQPPGKGLEWIGGISSAATTFYSSWAKSRVTISRDTSKNQVSLKLSSVTAADTAVYYCARDPRGYGAALDRLDLWGQGTLVTVSS
# VL: DIQMTQSPSSLSASVGDRVTITCQSIKSVYNNRLGWYQQKPGKAPKLLIYETSILTSGVPSRFSGSGSGTDFTLTISSLQPEDFATYYCAGGFDRSGDTTFGQGTKVEIK
# B3: E104.v2 IgG1 hinge variant G1 + GG (antibody, V domains shown)
# VH: B2 VH
# VL: B2 VL
# notes: variable domain of the heavy chain as in m6 (PDB 6VVU, Fab heavy chain) with V71R and F78V (Kabat numbering); human IgG1 heavy chain constant region before the upper hinge (CH1); upper hinge of the variant; human IgG1 heavy chain constant region after the upper hinge (core hinge from C226, CH2, CH3); as the light chain of m6 (PDB 6VVU, Fab light chain); IgG1 with an extended upper hinge; source: …
# B4: humanized E104.v2 IgG1 (antibody, V domains shown)
# VH: B2 VH
# VL: B2 VL
# notes: variable domain of the heavy chain as in m6 (PDB 6VVU, Fab heavy chain) with V71R and F78V (Kabat numbering); human IgG1 heavy chain constant region; as the light chain of m6 (PDB 6VVU, Fab light chain); IgG1; also called IgG1.v2; WT IgG1 hinge; source: 293 cells, transient transfection, purified (MabSelect SuRe, SEC); copies: 2 + 2
# B5: E104.v2 IgG1 hinge variant G1.CC (antibody, V domains shown)
# VH: B2 VH
# VL: B2 VL
# notes: variable domain of the heavy chain as in m6 (PDB 6VVU, Fab heavy chain) with V71R and F78V (Kabat numbering); human IgG1 heavy chain constant region before the upper hinge (CH1); upper hinge of the variant; human IgG1 heavy chain constant region after the upper hinge (core hinge from C226, CH2, CH3); as the light chain of m6 (PDB 6VVU, Fab light chain); IgG1 with two added cysteines in the upper …
# B6: E104.v2 IgG2 (antibody, V domains shown)
# VH: B2 VH
# VL: B2 VL
# notes: variable domain of the heavy chain as in m6 (PDB 6VVU, Fab heavy chain) with V71R and F78V (Kabat numbering); human IgG2 heavy chain constant region; upper hinge printed as ERKCCVE; as the light chain of m6 (PDB 6VVU, Fab light chain); IgG2 isotype version of E104.v2; source: 293 cells, transient transfection, purified (MabSelect SuRe, SEC); copies: 2 + 2
# B7: humanized E104.v1 IgG1 (antibody, V domains shown)
# VH: B2 VH with R71V, V78F
# VL: B2 VL
# notes: variable domain of the heavy chain as in m6 (PDB 6VVU, Fab heavy chain); human IgG1 heavy chain constant region; as the light chain of m6 (PDB 6VVU, Fab light chain); IgG1; also called IgG1.v1; source: 293 cells, transient transfection, purified (MabSelect SuRe, SEC); copies: 2 + 2
# B8: E104.v2 IgG1 hinge variant G1 + (GGS)3 (antibody, V domains shown)
# VH: B2 VH
# VL: B2 VL
# notes: humanized E104.v2 VH: as the VH of Sm2 (E104.v1, PDB 6VVU heavy chain) with V71R and F78V (Kabat numbering); human IgG1 heavy chain constant region, the CH1 domain up to the upper hinge; human IgG1 heavy chain constant region after the upper hinge (core and lower hinge, CH2, CH3); IgG1 with extended upper hinge; copies: 2 + 2
# B9: E104.v2 IgG1 hinge variant G1.G5 (antibody, V domains shown)
# VH: B2 VH
# VL: B2 VL
# notes: humanized E104.v2 VH: as the VH of Sm2 (E104.v1, PDB 6VVU heavy chain) with V71R and F78V (Kabat numbering); human IgG1 heavy chain constant region, the CH1 domain up to the upper hinge; engineered upper hinge: DKTHT of the human IgG1 upper hinge replaced by five glycines; human IgG1 heavy chain constant region after the upper hinge (core and lower hinge, CH2, CH3); IgG1 with a flexible upper …
# B10: E104.v2 IgG1 hinge variant G1 + (GGS)3 (antibody, V domains shown)
# VH: B2 VH
# VL: B2 VL
# notes: as for B3
# B11: E104.v2 IgG1 hinge variant G1-KTH (antibody, V domains shown)
# VH: B2 VH
# VL: B2 VL
# B12: E104.v2 IgG1 hinge variant G1.G5 (antibody, V domains shown)
# VH: B2 VH
# VL: B2 VL
# notes: variable domain of the heavy chain as in m6 (PDB 6VVU, Fab heavy chain) with V71R and F78V (Kabat numbering); human IgG1 heavy chain constant region before the upper hinge (CH1); upper hinge of the variant; human IgG1 heavy chain constant region after the upper hinge (core hinge from C226, CH2, CH3); as the light chain of m6 (PDB 6VVU, Fab light chain); IgG1 with five glycines in the upper hinge; …
# B13: humanized E104.v2 IgG2 (antibody, V domains shown)
# VH: B2 VH
# VL: B2 VL
# notes: humanized E104.v2 VH: as the VH of Sm2 (E104.v1, PDB 6VVU heavy chain) with V71R and F78V (Kabat numbering); human IgG2 heavy chain constant region, the CH1 domain up to the upper hinge; upper hinge of human IgG2; human IgG2 heavy chain constant region after the upper hinge (core and lower hinge, CH2, CH3); IgG2 isotype version of E104.v2; copies: 2 + 2
# B14: E104.v2 IgG1 hinge variant G1-H (antibody, V domains shown)
# VH: B2 VH
# VL: B2 VL
# notes: humanized E104.v2 VH: as the VH of Sm2 (E104.v1, PDB 6VVU heavy chain) with V71R and F78V (Kabat numbering); human IgG1 heavy chain constant region, the CH1 domain up to the upper hinge; human IgG1 heavy chain constant region after the upper hinge (core and lower hinge, CH2, CH3); IgG1 with shortened upper hinge; copies: 2 + 2
# B15: E104.v2 Fab (Fab, V domains shown)
# VH: B2 VH
# VL: B2 VL
# notes: as the heavy chain of m6 (PDB 6VVU, Fab heavy chain) with the two framework changes V71R and F78V (Kabat numbering); as the light chain of m6 (PDB 6VVU, Fab light chain); No structure of v2 was obtained; it differs from v1 only at heavy chain framework positions 71 and 78; also called Fab E104.v2; source: E. coli, purified (Protein G, SP Sepharose, S75 SEC)
# B16: humanized E104.v1 IgG1 (antibody, V domains shown)
# VH: B2 VH with R71V, V78F
# VL: B2 VL
# notes: humanized E104.v1 VH (rabbit E104 CDRs on the human VHIV consensus framework); Kabat numbering; human IgG1 heavy chain constant region, the CH1 domain up to the upper hinge; upper hinge of human IgG1, wild type; human IgG1 heavy chain constant region after the upper hinge (core and lower hinge, CH2, CH3); humanized E104 light chain (rabbit E104 CDRs on the human VLKI consensus framework); IgG1; …
# Assays:
# [1] = biological target: the molecule itself; experiment: crystal structure; E104.v1 Fab with tetrameric βI-tryptase; crystals at 19 °C, 0.1 M Tris pH 8.5, 0.2 M CaCl2, 20% PEG 4000, 4% pentaerythritol ethoxylate; 3.0 Å
# [2] = biological target: T1, human βI-tryptase monomer (Homo sapiens, UniProt Q15661); experiment: SPR; Biacore T200; anti-tryptase IgG variant captured on a CM5 chip with anti-human IgG (Fc) antibody; threefold dilutions of human βI-tryptase monomer injected at 30 µL/min, 25 °C, 3-min association, 10-min dissociation; 1:1 binding model; representative single sensorgram sets; conditions: both partners purified
# T1 construct: mature wild-type human βI-tryptase, Uniprot Q15661, Ile31-Pro275 (Ile16-Pro246 chymotrypsinogen numbering); also called monomeric βI-tryptase; β1-tryptase; source: Trichoplusia ni cells (baculovirus), secreted, purified (Ni-NTA, S200 SEC)
# T1 sequence (Q15661 31-275): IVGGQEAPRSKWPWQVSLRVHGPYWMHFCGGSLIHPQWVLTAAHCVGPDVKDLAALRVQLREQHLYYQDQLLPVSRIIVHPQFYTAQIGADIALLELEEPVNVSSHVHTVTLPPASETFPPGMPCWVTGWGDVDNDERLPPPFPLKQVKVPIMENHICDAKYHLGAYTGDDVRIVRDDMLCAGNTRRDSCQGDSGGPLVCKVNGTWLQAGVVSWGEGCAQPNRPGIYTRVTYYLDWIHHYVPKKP
# [3] = biological target: T2, human βI-tryptase monomer (Homo sapiens, UniProt Q15661); experiment: SPR; Biacore T200; E104 IgG variants captured on immobilised mouse anti-human IgG (Fc) antibody on CM5 chips; threefold dilutions of human βI-tryptase monomer injected at 30 µL/min, 25 °C; 1:1 Langmuir model; n = 2; conditions: both partners purified
# T2 construct: mature human βI-tryptase, Ile31-Pro275 of Uniprot Q15661 (Ile16-Pro246 in chymotrypsinogen numbering); The monomer used in SPR and HDX-MS; also called monomeric βI-tryptase; monomeric β-tryptase
# T2 sequence (Q15661 31-275): as above
# [4] = biological target: T3, human βI-tryptase monomer (Homo sapiens, UniProt Q15661); experiment: SPR; Biacore T200; antibody captured on a CM5 chip by immobilised mouse anti-human IgG (Fc); threefold dilutions of βI-tryptase monomer injected at 30 µL/min, 25 °C, 3-min association, 10-min dissociation; 1:1 Langmuir fit; n = 2; conditions: both partners purified
# T3 construct: mature wild-type human βI-tryptase, Uniprot Q15661, Ile31-Pro275 (Ile16-Pro246 in chymotrypsinogen numbering); The SPR methods say only 'human βI-tryptase monomer'; The methods describe the monomeric form as the zymogen, which still carries the N-terminal His6 tag and enterokinase site before Ile16; also called monomeric βI-tryptase; β-tryptase; source: Trichoplusia ni cells (baculovirus, …)
# T3 sequence (Q15661 31-275): as above
# [5] = biological target: T4, βI-tryptase tetramer mutant I99C (human, engineered disulfide bond in the large interface (C99)); experiment: SEC; without heparin; tetrameric βI-tryptase (WT, Y75C or I99C) or zymogen monomer mixed with a twofold molar excess of Fab, 15 min at 25 °C; S200GL column in 10 mM MOPS pH 6.8, 2 M NaCl; fractions checked by SDS-PAGE; conditions: both partners purified
# T4 construct: mature human βI-tryptase, Ile31-Pro275 of Uniprot Q15661 (Ile16-Pro246 in chymotrypsinogen numbering); numbers count on: chymotrypsinogen numbering; Loaded as a tetramer; with E104.v2 Fab it runs as a complex of the disulfide-linked dimer; also called disulfide-locked large interface mutant; not shown: His6, N-terminal, cleaved
# T4 sequence (chain, as listed by the source I99C I99C): as the sequence (Q15661 31-275) above, with I88C counted along it
Binder,Kd [3] [pM],Kd [4],also measured
B1,–,–,stoichiometry N [1]: 4
B2,–,–,Kd [2]: 560 pM
B3,400 ± 20,–,–
B4,600 ± 10,–,–
B5,400 ± 30,–,–
B6,600 ± 100,–,–
B7,500 ± 20,–,–
B8,–,626 pM and 410 pM,–
B9,–,643 pM and 493 pM,–
B10,500 ± 100,–,–
B11,–,–,Kd [2]: 522 pM
B12,600 ± 100,–,–
B13,–,537 pM and 672 pM,–
B14,–,680 pM and 494 pM,–
B15,–,–,stoichiometry N [5]: 2 Fab per disulfide-linked dimer
B16,–,543 pM and 521 pM,–
